Reference: FireProtDB (doi:10.1006/jmbi.1999.2569)

Conditions: Bacillus amyloliquefaciens; pH 6.3; Thermal; DSC; MES 50 mM; whole UniProt chain shown

B1: Ribonuclease wild type, P00648 (protein)
chain: MMKMEGIALKKRLSWISVCLLVLVSAAGMLFSTAAKTETSSHKAHTEAQVINTFDGVADYLQTYHKLPDNYITKSEAQALGWVASKGNLADVAPGKSIGGDIFSNREGKLPGKSGRTWREADINYTSGFRNSDRILYSSDWLIYKTTDHYQTFTKIR
Question: Which Tm does the source give for B1 here?
Answer: 54.1 °C
